In paper PMC11480441, “Structure of tetrameric forms of the serotonin-gated 5-HT3A receptor ion channel” (The EMBO Journal, 2024):
Where “and” joins values, the source holds several entries; their conditions need not be identical. Equal entries are not always repeated.

Columns and labels:
[1] = target: the molecule itself; experiment: cryo-EM structure; single-particle cryo-EM of purified 5-HT3AR in saposin lipoprotein (Salipro) with brain polar lipids, 25 mM HEPES, 125 mM NaCl, pH 7.4; apo, with serotonin (uncaged RuBi-5-HT, 200 uM), and with 100 uM 5-HT + 2 mM CaCl2; 2D and 3D classification without imposed symmetry
[2] = target: the molecule itself; experiment: native gel or EMSA; blue native PAGE, 5-20% gradient gel, 4 °C; 10 ug solubilised 5-HT3AR incubated 30 min with 0 to 10 mM SDS; BSA oligomers as size markers

B1: murine wild-type serotonin 5-HT3A receptor (receptor, mouse (murine), UniProt P23979 24-489, looked up)
chain: SRRRATQARDTTQPALLRLSDHLLANYKKGVRPVRDWRKPTTVSIDVIMYAILNVDEKNQVLTTYIWYRQYWTDEFLQWTPEDFDNVTKLSIPTDSIWVPDILINEFVDVGKSPNIPYVYVHHRGEVQNYKPLQLVTACSLDIYNFPFDVQNCSLTFTSWLHTIQDINITLWRSPEEVRSDKSIFINQGEWELLEVFPQFKEFSIDISNSYAEMKFYVIIRRRPLFYAVSLLLPSIFLMVVDIVGFCLPPDSGERVSFKITLLLGYSVFLIIVSDTLPATAIGTPLIGVYFVVCMALLVISLAETIFIVRLVHKQDLQRPVPDWLRHLVLDRIAWILCLGEQPMAHRPPATFQANKTDDCSGSDLLPAMGNHCSHVGGPQDLEKTPRGRGSPLPPPREASLAVRGLLQELSSIRHFLEKRDEMREVARDWLRVGYVLDRLLFRIYLLAVLAYSITLVTLWSIWHYS
modifications: densities resembling N-linked glycosylation at N82, N148 and N164
notes: 5-HT3A receptor subunit, mouse, wild type, full length; The same subunit is found as a pentamer and as a tetramer (4 or 5 copies); The intracellular domain is not modelled in the tetramer structures; also called 5-HT3R; 5-HT3AR-Salipro; source: purified (C12E9 solubilisation, Streptactin, SEC) and reconstituted in saposins with porcine brain polar lipids; also unpurified in cell-derived plasma …
How did the “stoichiometry N” value [1] turn out when B1 was run?
The value was 4 and 5.

What about the “stoichiometry N” value [2] of the same protein?
The value was 3 and 2.
